# Assay results from patent publication US20240189351A1 (US Dept. of Health and Human Services, published 2024).
# T1: recombinant human IL-13Rα2Fc chimera protein (R&D) (human, UniProt Q14627 27-343, biotinylated (sulfo-NHS-biotin) in the immunofluorescence assay only)
# T1 construct: Bought protein (R&D); It was used biotinylated in the IFA and unlabelled in the migration assay; also called huIL-13Rα2Fc chimeric protein; HuIL-13Rα2Fc; Fc part of the bought chimera not given
# T1 sequence (looked up): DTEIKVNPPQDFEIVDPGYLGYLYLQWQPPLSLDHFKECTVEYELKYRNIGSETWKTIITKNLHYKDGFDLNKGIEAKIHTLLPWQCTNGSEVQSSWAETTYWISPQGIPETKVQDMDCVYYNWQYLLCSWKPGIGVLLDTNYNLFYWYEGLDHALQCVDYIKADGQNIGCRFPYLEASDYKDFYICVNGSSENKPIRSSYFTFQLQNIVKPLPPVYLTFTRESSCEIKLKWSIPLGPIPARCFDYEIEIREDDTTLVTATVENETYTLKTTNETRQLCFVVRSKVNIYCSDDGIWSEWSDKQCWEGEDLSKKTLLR
# Molecular target: T1, recombinant human IL-13Rα2Fc chimera …
# Assay: method not stated; affinity for recombinant IL-13Rα2Fc compared with the previously cloned scFv
binder,measurement,value
"IL-13Rα2 scFv (improved scFv-IL-13Rα2) (scFv, also called clone derived protein) scFv: QVQLVQSGAEVKKPGASVKVSCKASGYTFTSYAMHWVRQAPGQRLEWMGWINAGNGNTKYSQKFQGRVTITRDTSASTAYMELSSLRSEDTAVYYCARMNHMIPLKAWGQGTLVTVSSGGGGSGGGGSGGSALAIQMTQSPSSLSASVGDRVTITCRASQGIRNDLGWYQQKPGKAPKLLIYAASSLQSGVPSRFSGSGSGTDFTLTISSLQPEDFATYYCLQMYNYRTFGQGTKLEIKRA",fold higher binding affinity compared to the previously cloned scFv ECD-IL-13Rα2 (Kioi et al. 2008),> 4 fold
